Experiments:
Assay in all cases: Kinase Profiling Assay
DAPK1(h) = DAPK1(h) (Homo sapiens, UniProt P53355); type: biochemical
Flt3(D835Y)(h) = Flt3(D835Y)(h) (Homo sapiens, UniProt P36888, D835Y); type: biochemical
HIPK2(h) = HIPK2(h) (Homo sapiens, UniProt Q9H2X6); type: biochemical
MuSK(h) = molecular target: T1, MuSK(h) (Homo sapiens, UniProt O15146); type: biochemical
T1 sequence (O15146 24-869): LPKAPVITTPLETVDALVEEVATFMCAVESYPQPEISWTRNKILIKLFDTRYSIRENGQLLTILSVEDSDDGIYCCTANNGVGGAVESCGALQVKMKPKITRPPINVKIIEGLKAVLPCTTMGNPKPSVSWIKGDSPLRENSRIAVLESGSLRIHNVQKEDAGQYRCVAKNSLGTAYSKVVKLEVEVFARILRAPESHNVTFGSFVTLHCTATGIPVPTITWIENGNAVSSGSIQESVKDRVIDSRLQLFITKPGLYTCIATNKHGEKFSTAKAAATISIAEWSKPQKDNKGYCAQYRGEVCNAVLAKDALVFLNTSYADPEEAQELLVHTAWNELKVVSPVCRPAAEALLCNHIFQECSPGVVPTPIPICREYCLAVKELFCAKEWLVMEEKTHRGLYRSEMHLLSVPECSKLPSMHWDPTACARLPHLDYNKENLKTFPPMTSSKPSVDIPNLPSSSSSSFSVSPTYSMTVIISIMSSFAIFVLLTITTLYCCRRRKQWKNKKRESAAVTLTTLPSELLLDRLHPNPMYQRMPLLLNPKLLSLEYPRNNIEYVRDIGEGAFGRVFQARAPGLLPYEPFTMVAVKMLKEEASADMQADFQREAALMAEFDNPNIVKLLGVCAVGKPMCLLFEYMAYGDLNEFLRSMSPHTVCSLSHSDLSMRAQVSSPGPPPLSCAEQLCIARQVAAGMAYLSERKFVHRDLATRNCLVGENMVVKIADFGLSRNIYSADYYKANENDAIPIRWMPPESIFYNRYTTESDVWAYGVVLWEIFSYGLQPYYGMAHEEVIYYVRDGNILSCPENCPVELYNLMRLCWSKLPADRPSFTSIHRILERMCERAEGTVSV

PRAK(h) = molecular target: T2, PRAK(h) (Homo sapiens, UniProt Q8IW41); type: biochemical
T2 sequence (Q8IW41 1-473): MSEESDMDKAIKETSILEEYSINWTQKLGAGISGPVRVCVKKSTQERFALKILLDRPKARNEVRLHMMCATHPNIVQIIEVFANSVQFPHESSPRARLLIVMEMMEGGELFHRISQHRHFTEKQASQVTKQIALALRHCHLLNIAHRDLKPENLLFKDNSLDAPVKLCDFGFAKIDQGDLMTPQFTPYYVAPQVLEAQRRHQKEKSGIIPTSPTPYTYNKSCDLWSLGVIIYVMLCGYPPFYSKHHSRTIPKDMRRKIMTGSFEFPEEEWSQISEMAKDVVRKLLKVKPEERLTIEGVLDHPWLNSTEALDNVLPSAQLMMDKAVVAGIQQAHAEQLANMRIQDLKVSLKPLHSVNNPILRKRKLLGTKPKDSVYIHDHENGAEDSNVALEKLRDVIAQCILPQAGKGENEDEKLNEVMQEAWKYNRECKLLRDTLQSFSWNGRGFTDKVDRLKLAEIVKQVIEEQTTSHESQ

Ret(V804M)(h) = Ret(V804M)(h) (Homo sapiens, UniProt P07949, V804M); type: biochemical
Arg(h) = Arg(h) (Homo sapiens, UniProt P42684); type: biochemical; conditions: 100 μM
CaMKIIδ(h) = CaMKIIδ(h) (Homo sapiens, UniProt Q13557); type: biochemical; conditions: 100 μM
CaMKIIδ(h), sequence (Q13557 whole entry): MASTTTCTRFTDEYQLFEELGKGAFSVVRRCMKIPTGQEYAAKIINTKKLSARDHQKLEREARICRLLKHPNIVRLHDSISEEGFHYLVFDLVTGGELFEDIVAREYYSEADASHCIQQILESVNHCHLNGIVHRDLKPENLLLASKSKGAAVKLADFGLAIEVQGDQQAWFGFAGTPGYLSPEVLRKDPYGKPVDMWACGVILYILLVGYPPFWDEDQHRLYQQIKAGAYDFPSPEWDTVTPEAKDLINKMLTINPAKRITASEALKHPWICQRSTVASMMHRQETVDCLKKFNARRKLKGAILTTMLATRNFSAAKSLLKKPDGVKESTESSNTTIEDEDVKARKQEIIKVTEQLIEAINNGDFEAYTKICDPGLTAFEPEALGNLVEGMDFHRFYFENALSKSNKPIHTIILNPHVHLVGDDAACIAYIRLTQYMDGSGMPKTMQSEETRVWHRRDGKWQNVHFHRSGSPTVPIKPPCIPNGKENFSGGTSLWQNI

CDK7/cyclinH/MAT1(h) = CDK7/cyclinH/MAT1(h) (Homo sapiens, UniProt P50613); type: biochemical; conditions: 100 μM
CDK7/cyclinH/MAT1(h), sequence (P50613 whole entry): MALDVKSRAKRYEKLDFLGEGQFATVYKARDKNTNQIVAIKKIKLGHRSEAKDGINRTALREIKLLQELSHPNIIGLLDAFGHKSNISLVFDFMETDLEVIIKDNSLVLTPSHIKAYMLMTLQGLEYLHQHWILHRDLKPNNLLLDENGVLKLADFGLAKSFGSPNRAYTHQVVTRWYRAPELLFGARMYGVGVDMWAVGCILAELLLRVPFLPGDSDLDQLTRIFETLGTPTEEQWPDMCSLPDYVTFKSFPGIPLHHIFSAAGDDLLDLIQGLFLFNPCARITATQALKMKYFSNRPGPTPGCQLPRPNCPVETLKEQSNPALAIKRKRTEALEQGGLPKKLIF
CDK7/cyclinH/MAT1(h), sequence (P51946 whole entry partner): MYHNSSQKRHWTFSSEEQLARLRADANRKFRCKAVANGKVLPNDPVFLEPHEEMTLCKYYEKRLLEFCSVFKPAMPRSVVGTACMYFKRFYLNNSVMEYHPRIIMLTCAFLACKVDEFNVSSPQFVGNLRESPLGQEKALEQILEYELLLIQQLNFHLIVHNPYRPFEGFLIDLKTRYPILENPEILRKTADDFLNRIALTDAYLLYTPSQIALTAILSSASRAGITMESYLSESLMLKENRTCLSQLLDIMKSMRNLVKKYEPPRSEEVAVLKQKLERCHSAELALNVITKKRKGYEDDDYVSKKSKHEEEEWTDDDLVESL
CDK7/cyclinH/MAT1(h), sequence (P51948 whole entry partner): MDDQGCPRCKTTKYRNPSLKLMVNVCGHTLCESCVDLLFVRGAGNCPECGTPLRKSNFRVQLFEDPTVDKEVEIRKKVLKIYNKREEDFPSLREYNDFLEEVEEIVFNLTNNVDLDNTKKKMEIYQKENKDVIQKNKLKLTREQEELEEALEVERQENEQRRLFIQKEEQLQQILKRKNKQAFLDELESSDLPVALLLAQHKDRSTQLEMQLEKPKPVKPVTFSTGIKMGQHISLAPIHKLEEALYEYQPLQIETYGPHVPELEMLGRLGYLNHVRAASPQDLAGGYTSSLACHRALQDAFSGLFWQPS

Fer(h) = Fer(h) (Homo sapiens, UniProt P16591); type: biochemical; conditions: 100 μM
Flt1(h) = Flt1(h) (Homo sapiens, UniProt P17948); type: biochemical; conditions: 100 μM
MLCK(h) = type: biochemical, human; conditions: 100 μM
MSK1(h) = MSK1(h) (Homo sapiens, UniProt O75582); type: biochemical; conditions: 100 μM
MSK1(h), sequence (O75582 whole entry): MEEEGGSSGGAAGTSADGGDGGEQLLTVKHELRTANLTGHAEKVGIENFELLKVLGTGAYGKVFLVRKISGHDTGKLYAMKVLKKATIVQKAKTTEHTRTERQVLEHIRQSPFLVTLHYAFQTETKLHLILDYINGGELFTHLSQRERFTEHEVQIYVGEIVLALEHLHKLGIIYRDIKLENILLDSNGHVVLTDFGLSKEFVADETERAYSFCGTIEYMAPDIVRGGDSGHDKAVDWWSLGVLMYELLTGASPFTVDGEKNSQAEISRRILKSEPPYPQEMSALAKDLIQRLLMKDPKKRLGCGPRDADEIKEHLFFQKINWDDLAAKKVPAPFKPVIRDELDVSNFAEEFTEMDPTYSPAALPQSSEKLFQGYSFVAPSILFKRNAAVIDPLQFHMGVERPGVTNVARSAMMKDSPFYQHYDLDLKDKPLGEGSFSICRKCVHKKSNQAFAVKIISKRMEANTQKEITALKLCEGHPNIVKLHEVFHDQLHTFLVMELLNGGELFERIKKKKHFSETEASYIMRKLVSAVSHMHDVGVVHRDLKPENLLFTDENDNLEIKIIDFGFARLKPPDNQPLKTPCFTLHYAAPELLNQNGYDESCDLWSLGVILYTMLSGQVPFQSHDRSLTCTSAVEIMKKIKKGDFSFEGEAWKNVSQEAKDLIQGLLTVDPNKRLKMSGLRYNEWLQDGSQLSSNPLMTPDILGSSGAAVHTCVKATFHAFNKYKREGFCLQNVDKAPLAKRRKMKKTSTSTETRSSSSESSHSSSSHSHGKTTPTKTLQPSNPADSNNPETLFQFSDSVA

NEK6(h) = NEK6(h) (Homo sapiens, UniProt Q9HC98); type: biochemical; conditions: 100 μM
NEK6(h), sequence (Q9HC98 whole entry): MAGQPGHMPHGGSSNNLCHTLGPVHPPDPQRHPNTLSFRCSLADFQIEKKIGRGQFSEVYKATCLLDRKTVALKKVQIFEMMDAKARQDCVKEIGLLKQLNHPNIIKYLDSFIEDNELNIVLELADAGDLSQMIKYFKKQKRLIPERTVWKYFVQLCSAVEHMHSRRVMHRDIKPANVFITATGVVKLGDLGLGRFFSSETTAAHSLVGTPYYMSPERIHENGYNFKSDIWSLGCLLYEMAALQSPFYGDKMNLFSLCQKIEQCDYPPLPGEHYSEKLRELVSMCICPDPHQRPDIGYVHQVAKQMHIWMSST

PKBβ(h) = PKBβ(h) (Homo sapiens, UniProt P31751); type: biochemical; conditions: 100 μM
PKBβ(h), sequence (P31751 whole entry): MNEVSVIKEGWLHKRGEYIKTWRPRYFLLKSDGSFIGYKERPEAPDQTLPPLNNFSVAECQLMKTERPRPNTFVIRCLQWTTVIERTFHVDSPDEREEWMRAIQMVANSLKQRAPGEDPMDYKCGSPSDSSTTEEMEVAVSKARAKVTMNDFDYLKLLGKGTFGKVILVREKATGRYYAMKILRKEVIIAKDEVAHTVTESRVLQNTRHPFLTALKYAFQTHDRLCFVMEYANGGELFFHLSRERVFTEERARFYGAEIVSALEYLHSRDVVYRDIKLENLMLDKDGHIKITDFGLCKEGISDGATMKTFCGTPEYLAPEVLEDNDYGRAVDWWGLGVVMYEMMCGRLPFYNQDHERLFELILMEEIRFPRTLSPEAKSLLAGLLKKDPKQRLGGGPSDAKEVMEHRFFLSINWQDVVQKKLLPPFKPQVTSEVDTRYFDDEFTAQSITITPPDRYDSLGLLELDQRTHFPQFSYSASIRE

Pyk2(h) = Pyk2(h) (Homo sapiens, UniProt Q14289); type: biochemical; conditions: 100 μM
Pyk2(h), sequence (Q14289 whole entry): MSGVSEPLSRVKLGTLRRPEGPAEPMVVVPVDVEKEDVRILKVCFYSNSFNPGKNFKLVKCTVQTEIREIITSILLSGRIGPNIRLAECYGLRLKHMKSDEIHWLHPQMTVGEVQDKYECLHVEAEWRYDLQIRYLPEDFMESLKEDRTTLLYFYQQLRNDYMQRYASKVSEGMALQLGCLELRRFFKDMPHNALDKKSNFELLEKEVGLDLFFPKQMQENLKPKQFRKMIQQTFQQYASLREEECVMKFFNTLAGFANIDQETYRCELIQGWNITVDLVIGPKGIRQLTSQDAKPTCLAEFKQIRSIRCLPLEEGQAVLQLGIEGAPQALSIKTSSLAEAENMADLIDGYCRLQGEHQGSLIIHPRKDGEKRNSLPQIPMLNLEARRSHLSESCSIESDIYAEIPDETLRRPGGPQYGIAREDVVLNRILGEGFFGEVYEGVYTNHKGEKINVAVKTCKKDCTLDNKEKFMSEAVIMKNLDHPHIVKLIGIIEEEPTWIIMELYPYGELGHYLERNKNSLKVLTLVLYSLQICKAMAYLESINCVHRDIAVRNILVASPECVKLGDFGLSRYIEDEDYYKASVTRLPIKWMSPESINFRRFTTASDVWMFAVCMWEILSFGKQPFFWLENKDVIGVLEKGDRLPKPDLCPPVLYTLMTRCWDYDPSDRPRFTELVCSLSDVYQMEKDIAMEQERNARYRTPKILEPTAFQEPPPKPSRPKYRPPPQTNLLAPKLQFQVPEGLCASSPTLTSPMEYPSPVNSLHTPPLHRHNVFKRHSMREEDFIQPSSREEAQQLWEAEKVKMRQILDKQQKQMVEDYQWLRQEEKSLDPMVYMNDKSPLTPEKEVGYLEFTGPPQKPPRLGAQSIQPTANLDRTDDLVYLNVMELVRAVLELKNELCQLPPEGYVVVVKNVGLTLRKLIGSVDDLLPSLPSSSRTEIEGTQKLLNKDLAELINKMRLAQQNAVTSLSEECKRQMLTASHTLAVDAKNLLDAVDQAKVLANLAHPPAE

Rsk2(h) = Rsk2(h) (Homo sapiens, UniProt P51812); type: biochemical; conditions: 100 μM
Rsk2(h), sequence (P51812 whole entry): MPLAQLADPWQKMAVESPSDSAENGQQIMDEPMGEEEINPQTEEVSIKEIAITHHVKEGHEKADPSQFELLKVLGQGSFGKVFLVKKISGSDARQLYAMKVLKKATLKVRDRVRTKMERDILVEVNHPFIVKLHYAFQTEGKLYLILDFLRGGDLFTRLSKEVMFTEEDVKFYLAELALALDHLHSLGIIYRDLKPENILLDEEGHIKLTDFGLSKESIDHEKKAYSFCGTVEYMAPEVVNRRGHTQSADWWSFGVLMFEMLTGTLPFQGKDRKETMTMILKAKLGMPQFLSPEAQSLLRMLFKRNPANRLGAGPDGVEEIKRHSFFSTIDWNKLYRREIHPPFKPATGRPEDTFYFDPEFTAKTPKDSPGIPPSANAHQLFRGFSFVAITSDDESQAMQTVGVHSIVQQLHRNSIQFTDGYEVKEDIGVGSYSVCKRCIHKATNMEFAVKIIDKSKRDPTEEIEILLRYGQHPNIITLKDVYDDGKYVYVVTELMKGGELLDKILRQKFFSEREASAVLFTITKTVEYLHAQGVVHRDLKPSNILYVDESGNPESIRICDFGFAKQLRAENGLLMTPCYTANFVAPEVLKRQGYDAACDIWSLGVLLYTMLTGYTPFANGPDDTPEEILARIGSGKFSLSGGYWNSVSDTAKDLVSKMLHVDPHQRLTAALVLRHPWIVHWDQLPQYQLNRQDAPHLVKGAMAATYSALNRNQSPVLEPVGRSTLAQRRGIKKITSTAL

TSSK2(h) = molecular target: T3, TSSK2(h) (Homo sapiens, UniProt Q96PF2); type: biochemical; conditions: 100 μM
T3 sequence (Q96PF2 1-358): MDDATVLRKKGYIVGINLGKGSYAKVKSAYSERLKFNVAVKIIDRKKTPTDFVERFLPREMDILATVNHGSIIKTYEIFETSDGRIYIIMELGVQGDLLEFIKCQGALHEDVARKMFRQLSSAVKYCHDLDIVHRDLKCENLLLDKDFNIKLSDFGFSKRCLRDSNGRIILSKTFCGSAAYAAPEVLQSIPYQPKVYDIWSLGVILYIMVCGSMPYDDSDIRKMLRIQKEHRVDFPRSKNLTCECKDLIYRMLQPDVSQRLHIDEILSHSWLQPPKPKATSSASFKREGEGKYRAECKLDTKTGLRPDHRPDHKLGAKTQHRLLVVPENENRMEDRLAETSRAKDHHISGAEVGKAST

Row | Substance | % activity (Arg(h)) [%] | % activity (CaMKIIδ(h)) [%] | % activity (CDK7/cyclinH/MAT1(h)) [%] | % activity (Fer(h)) [%] | % activity (Flt1(h)) [%] | % activity (MLCK(h)) [%] | % activity (MSK1(h)) [%] | % activity (NEK6(h)) [%] | % activity (PKBβ(h)) [%] | % activity (Pyk2(h)) [%] | % activity (Rsk2(h)) [%] | % activity (TSSK2(h)) [%] | further results
1 | H-YARAAARQARAKALARQLGVAA-OH [MMI-0100] | – | – | – | – | – | – | – | – | – | – | – | – | activity at 100 µM (DAPK1(h)): 97%; activity at 100 µM (Flt3(D835Y)(h)): 120%; activity at 100 µM (HIPK2(h)): 98%; activity at 100 µM (MuSK(h)): 85%; activity at 100 µM (PRAK(h)): 159%; activity at 100 µM (Ret(V804M)(h)): 92%
2 | HRRIKAWLKKIKALARQLGVAA (Mammalian) [MMI-0500] | 22 | 1 | 15 | 196 | 27 | 0 | 8 | 49 | 21 | 46 | 14 | 92 | % activity (DAPK1(h); 100 μM): 0%; % activity (Flt3(D835Y)(h); 100 μM): 65%; % activity (HIPK2(h); 100 μM): 38%; % activity (MuSK(h); 100 μM): 27%; % activity (PRAK(h); 100 μM): 95%; % activity (Ret(V804M)(h); 100 μM): 36%
3 | YARAAARQARAKALNRQLGVA (Mammalian) [MMI-0200] | 82 | 2 | 67 | 101 | 96 | 103 | 50 | 98 | 250 | 127 | 101 | 91 | –
